Laboratory results as given in the supplement of paper PMC9170038.

Experiments:
MS2 coat protein [1] = experiment: apparent KD of MS2 coat protein, switch ON state; designed switch direction (-1 OFF switch, 1 ON switch): -1; higher = weaker reporter binding; conditions: FMN input: 0 or 200 uM; Eterna round: R93 (includes R88 designs)
In short: (§1)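 Illumina sequencing clusters served as templates for on-chip transcription of the designed RNA switches. SNAP-549-labelled MS2 coat protein was then titrated in twofold steps from 0.7 or 1.5 nM to 3 µM, allowing 0.8–1.5 h per step at first and 10–20 min per step later. The buffer held 100 mM Tris-HCl pH 7.5, 80 mM KCl and 4 mM MgCl2, without or with constant ligand. Apparent KD is the median per design of normalised cluster binding-curve fits.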

MS2 coat protein [2] = experiment: apparent KD of MS2 coat protein, switch OFF state (with FMN for OFF switches, without FMN for ON switches); designed switch direction (-1 OFF switch, 1 ON switch): -1; higher = weaker reporter binding; conditions: FMN input: 0 or 200 uM; Eterna round: R93 (includes R88 designs)
In short: as §1

| Sequence | apparent KD of MS2 coat protein (MS2 coat protein [1]) | apparent KD of MS2 coat protein (MS2 coat protein [2]) |
| --- | --- | --- |
| AAAAGUUCAGGAUAUACAUGAGGAUCACCCAUGUAGAAAGGAAGUGUAAAAAAAAAGUGUAGAAGGGAGCAUGA [MS2 Riboswitches On Chip Exclusion 3 wbt2] | 22.2 nM | 21.8 nM |
| AAGAAGUCAGGAUAUGCGAAGGCGUCUGAUAGACGAGGCUAGCAGAAGGGACAUGAGGAUCACCCAUGUAAAGA [Mat - Exclusion 4 - D83] | 45 nM | 55 nM |
| AAAAAACAUGAGGAUCACCCAUGUUAGGAUAUGCUAUGGAAAAUAAAAAAUAAACAUAGCAGAAGGAACAAAAA [Mat - Exclusion 1 - Eli mod - D30] | 21.2 nM | 32.6 nM |
| CUCAUGUCAGGAUAUCAGUAGUAAAAAAAAAAAAUUACUACUGAGAAGGGACAUGAGGAUCACCCAUGUCCAUU [EX4 304: Super Stable 4] | 53 nM | 36.9 nM |
| UAGAACCUAGGAUAUACUUGGGUCACUAAUUUACUGAUAUAACAUGAGGAUCACCCAUGUAGAAGGAGGAGUAA [JR_Exc002_Sub203] | 45.2 nM | 26.7 nM |
| GAUAAACAUGAGGAUCACCCAUGUAAGGAUAUGCGCUAACUAACUAACUAACUAACUAGCAGAAGGUACACUAC [The End] | 24.4 nM | 26.5 nM |
| UGCCGUCUAGGAUAUACAUGAGGAUCACCCAUGUGACACACAUAUUUUACAAAACCAUGUAGAAGGAGACGGCA [E3-2.0] | 99.2 nM | 477 nM |
| AAAAAGGCAGGAUAUACGAAGCUAAGACAAAUAAGCAAGGGACAUGAGGAUCACCCAUGUAGAAGGGCCAAAAA [Exclusion 2-01... 60% 3] | 41.1 nM | 132 nM |
| AAAAAGUGAGGAUAUGUCAAAAGUCACAAAAGUGACAAAAGACAGAAGGCACAUGAGGAUCACCCAUGUGGGAA [Mod of Eli - Late G + early G segment 1] | 56.1 nM | 121 nM |
| AAAAUACAUGAGGAUCACCCAUGUGAGGAUAUCUUAAAGGGAAUAAAAUAACUCAAAAAGAGAAGGCGCAAAAA [Ex 1 May 30] | 34.6 nM | 32 nM |
| AAAAAGGCAGGAUAUACAAAACAGGGAAACCUGAAAAGGAAACAUGAGGAUCACCCAUGUAGAAGGGCCAAGAA [Clint Eastwood] | 31 nM | 30.9 nM |
| AGUCAUACAGGAUAUACAUGAGGAUCACCCAUGUAUAUCCAAAAAAAAAAAAACUCAUGUAGAAGGGUAUGACA [EX3 206: Super Stable 6] | 12 nM | 12.4 nM |
| AUAGUACAUGAGGAUCACCCAUGUCAGGAUAUCGGAUAUGACAUGAAAAAAAUGUUAAUGAGAAGGGACUAUAA [EX1 Malc#18 Mod 1 - Jieux - Exclusion 1] | 52.9 nM | 63.6 nM |
| AGUUGGCGAGGAUAUACAUGAGGAUCACCCAUGUGAAAAAAAAAAGUGAGAAAGAAAAGUAGAAGGCGCUGACA [Mat - Exclusion 3 - Lego mod - D89] | 35.1 nM | 152 nM |
| GCGCACUAAGGAUAUACAUGAGGAUCACCCAUGUGGGUUUUGAAACAGAUUAAAUAGUGUAGAAGGUAGAAAAC [Lees] | 91.9 nM | 95.8 nM |
| AAGAACCUAGGAUAUACUUGGGUAACUAAUAAACUGAUAUAACAUGAGGAUCACCCAUGUAGAAGGAGGAGAAA [JR_Exc002_Sub204] | 50.1 nM | 62.4 nM |
| AAGAACUCAGGAUAUACAUGAGGAUCACCCAUGUAAAAGAAAGAAGGGAAAGAGAAAAGUAGAAGGGAGAAGAA [Niumateped] | 17.5 nM | 23.8 nM |
| AACAGUACAGGAUAUACAUGAGGAUCACCCAUGUGAACUUCAAGUGCCGUAGCACGAAGUAGAAGGGUACUGGA | 63.4 nM | 497 nM |
| AGUUGGCGAGGAUAUACAUGAGGAUCACCCAUGUGAGAGUAAGAAGUGAGAAAGAGAAGUAGAAGGCGCUAACA [Ruby 54] | 48.4 nM | 284 nM |
